Measured values: US12472269B2, “Liver-specific inducible promoters and methods of use thereof” (ASKBIO INC., priority 2019, dated 2025)

System: AXOL ARE-hepatocytes
Experiment: Luciferase expression from PBREM promoters in AXOL ARE-hepatocytes, induction by CITCO
Format: cell-based, human
Details: for induced luciferase expression as a ratio to CMV-IE: induction with CITCO, mean of 3 biological replicates
Description: Axol Assay-Ready Expanded (ARE) Hepatocytes are primary human hepatocytes that have been expanded in vitro. Large batch sizes (up to 2000 vials) are available, ensuring a reliable, ready-to-use and consistent source of primary hepatocytes. ARE Hepatocytes express CYP enzymes, are metabolically functional, are polarized and can be infected by the Hepatitis C virus. AXOL ARE-hepatocytes express CAR negating the need to transfect with a CAR-expressing plasmid.
• AXOL assay-ready expanded (ARE) hepatocytes (Axol, ax3701) • ARE hepatocyte thawing medium (Axol, ax3705) • ARE maintenance medium (Axol, ax3710) • Virimer red transfection reagent (Lipocalyx, VR04-02-15) • CITCO, lucifierase, β-galactosidase and BCA kits as described above
ARE hepatocytes were cultured and transfected as described in the manufacturer's manual. 200,000 cells were seeded in 2 ml culture medium in collagen-coated 6 well plate. The cells were incubated for 4 h at 37° C. and 5% CO2 for sufficient adhesion. 200 μl of transfection mixture containing the DNA to be transfected (PB1-MinTK/PB1-CMV/PB1-SV40 operably linked with luciferase and β-galactosidase containing promoter) was added and the cells were incubated on an orbital shaker at 100 rpm for three hours at 37° C. and 5% CO2. 3 hrs after transfection CITCO was added to the appropriate wells. Cells were incubated under static conditions at 37° C. and 5% CO2 overnight and in the morning the medium was replaced with fresh ARE Hepatocyte Maintenance Medium. Readout was 24 hrs after induction. […]

[1] = single PBREM element, minimal promoters compared

Molecule | induced luciferase expression as a ratio to CMV-IE | also measured
PB1-1-SV40: promoter: 2 mouse PBREM elements with SV40 minimal promoter, SEQ ID NO: 13 (nucleic acid, PB1-1-SV40) DNA: TCTGTACTTTCCTGACCTTGGCACAGTGCCACCATCAACTTGCCTGACACCCATTACTCGCATCCATTCTCTCTGTACTTTCCTGACCTTGGCACAGTGCCACCATCAACTTGCCTGACACCGCTGGGAGTTCGTAGACGGACTAGCCCGGGCTCGAGATCTGCGATCTGCATCTCAATTAGTCAGCAACCATAGTCCCGCCCCTAACTCCGCCCATCCCGCCCCTAACTCCGCCCAGTTCCGCCCATTCTCCGCCCCATCGCTGACTAATTTTTTTTATTTATGCAGAGGCCGAGGCCGCCTCGGCCTCTGAGCTATTCCAGAAGTAGTGAGGAGGCTTTTTTGGAGGCCTAGGCTTTTGCAAAAAGCTTGGCATTCCGGTACTGTTGGTAAAGCCACCC | 2.6 | –
PB1-1-CMV: promoter: 2 mouse PBREM elements with CMV minimal promoter, SEQ ID NO: 16 (nucleic acid, PB1-1-CMV) DNA: TCTGTACTTTCCTGACCTTGGCACAGTGCCACCATCAACTTGCCTGACACCCATTACTCGCATCCATTCTCTCTGTACTTTCCTGACCTTGGCACAGTGCCACCATCAACTTGCCTGACACCGCTGGGAGTTCGTAGACGGAGCGATTAATCCATATGCAGGTCTATATAAGCAGAGCTCGTTTAGTGAACCGTCAGATCGCCTAGATACGCCATCCACGCTGTTTTGACCTCCATAGAAGATCGCCACCC | 1.9 | –
PB1-3-MinTK: promoter: 4 mouse PBREM elements with MinTK minimal promoter, SEQ ID NO: 12 (nucleic acid, PB1-3-MinTk) DNA: TCTGTACTTTCCTGACCTTGGCACAGTGCCACCATCAACTTGCCTGACACCCATTACTCGCATCCATTCTCTCTGTACTTTCCTGACCTTGGCACAGTGCCACCATCAACTTGCCTGACACCGCACTGAAGGTCCTCAATCGTCTGTACTTTCCTGACCTTGGCACAGTGCCACCATCAACTTGCCTGACACCCTGACCTCCTGCCAGCAATATCTGTACTTTCCTGACCTTGGCACAGTGCCACCATCAACTTGCCTGACACCGCTGGGAGTTCGTAGACGGAGATCCGGCCCCGCCCAGCGTCTTGTCATTGGCGAATTCGAACACGCAGATGCAGTCGGGGCGGCGCGGTCCGAGGTCCACTTCGCATATTAAGGTGACGCGTGTGGCCTCGAACACCGAGCGACCCTGCAGCGACCCGCTTAACAGCGTCAACAGCGTGCCGCAGATCTCGAGGAGCTTGGCGAGATTTTCAGGAGCTAAGGAAGCTAAAC | 2.66 | –
PB1-1-MinTK: promoter: 2 mouse PBREM elements with MinTK minimal promoter, SEQ ID NO: 10 (nucleic acid, PB1-1-MinTk (2xPBREM)) DNA: TCTGTACTTTCCTGACCTTGGCACAGTGCCACCATCAACTTGCCTGACACCCATTACTCGCATCCATTCTCTCTGTACTTTCCTGACCTTGGCACAGTGCCACCATCAACTTGCCTGACACCGCTGGGAGTTCGTAGACGGAGATCCGGCCCCGCCCAGCGTCTTGTCATTGGCGAATTCGAACACGCAGATGCAGTCGGGGCGGCGCGGTCCGAGGTCCACTTCGCATATTAAGGTGACGCGTGTGGCCTCGAACACCGAGCGACCCTGCAGCGACCCGCTTAACAGCGTCAACAGCGTGCCGCAGATCTCGAGGAGCTTGGCGAGATTTTCAGGAGCTAAGGAAGCTAAAC | 1.5 | –
PB1-SV40-MP: promoter: 1 mouse PBREM element with SV40 minimal promoter, SEQ ID NO: 9 (nucleic acid, PB1-SV40-MP) DNA: TCTGTACTTTCCTGACCTTGGCACAGTGCCACCATCAACTTGCCTGACACCGCTGGGAGTTCGTAGACGGACTAGCCCGGGCTCGAGATCTGCGATCTGCATCTCAATTAGTCAGCAACCATAGTCCCGCCCCTAACTCCGCCCATCCCGCCCCTAACTCCGCCCAGTTCCGCCCATTCTCCGCCCCATCGCTGACTAATTTTTTTTATTTATGCAGAGGCCGAGGCCGCCTCGGCCTCTGAGCTATTCCAGAAGTAGTGAGGAGGCTTTTTTGGAGGCCTAGGCTTTTGCAAAAAGCTTGGCATTCCGGTACTGTTGGTAAAGCCACCC | – | expression level compared to CMV-IE (1 μM CITCO): 55%; induction of luciferase expression (1 μM CITCO, readout 24 hrs after induction): around 7 fold; background level [1]: higher background level; expression driven [1]: highest expression
PB1-CMV-MP: promoter: 1 mouse PBREM element with CMV minimal promoter, SEQ ID NO: 8 (nucleic acid, PB1-CMV-MP) DNA: TCTGTACTTTCCTGACCTTGGCACAGTGCCACCATCAACTTGCCTGACACCGCTGGGAGTTCGTAGACGGAGCGATTAATCCATATGCAGGTCTATATAAGCAGAGCTCGTTTAGTGAACCGTCAGATCGCCTAGATACGCCATCCACGCTGTTTTGACCTCCATAGAAGATCGCCACCC | – | expression level compared to CMV-IE (1 μM CITCO): 10%; expression driven [1]: little to no expression
PB1-3-SV40: promoter: 4 mouse PBREM elements with SV40 minimal promoter, SEQ ID NO: 15 (nucleic acid, PB1-3-SV40) DNA: TCTGTACTTTCCTGACCTTGGCACAGTGCCACCATCAACTTGCCTGACACCCATTACTCGCATCCATTCTCTCTGTACTTTCCTGACCTTGGCACAGTGCCACCATCAACTTGCCTGACACCGCACTGAAGGTCCTCAATCGTCTGTACTTTCCTGACCTTGGCACAGTGCCACCATCAACTTGCCTGACACCCTGACCTCCTGCCAGCAATATCTGTACTTTCCTGACCTTGGCACAGTGCCACCATCAACTTGCCTGACACCGCTGGGAGTTCGTAGACGGACTAGCCCGGGCTCGAGATCTGCGATCTGCATCTCAATTAGTCAGCAACCATAGTCCCGCCCCTAACTCCGCCCATCCCGCCCCTAACTCCGCCCAGTTCCGCCCATTCTCCGCCCCATCGCTGACTAATTTTTTTTATTTATGCAGAGGCCGAGGCCGCCTCGGCCTCTGAGCTATTCCAGAAGTAGTGAGGAGGCTTTTTTGGAGGCCTAGGCTTTTGCAAAAAGCTTGGCATTCCGGTACTGTTGGTAAAGCCACCC | 2.57 | –
PB1-2-SV40: promoter: 3 mouse PBREM elements with SV40 minimal promoter, SEQ ID NO: 14 (nucleic acid, PB1-2-SV40) DNA: TCTGTACTTTCCTGACCTTGGCACAGTGCCACCATCAACTTGCCTGACACCCATTACTCGCATCCATTCTCTCTGTACTTTCCTGACCTTGGCACAGTGCCACCATCAACTTGCCTGACACCGCACTGAAGGTCCTCAATCGTCTGTACTTTCCTGACCTTGGCACAGTGCCACCATCAACTTGCCTGACACCGCTGGGAGTTCGTAGACGGACTAGCCCGGGCTCGAGATCTGCGATCTGCATCTCAATTAGTCAGCAACCATAGTCCCGCCCCTAACTCCGCCCATCCCGCCCCTAACTCCGCCCAGTTCCGCCCATTCTCCGCCCCATCGCTGACTAATTTTTTTTATTTATGCAGAGGCCGAGGCCGCCTCGGCCTCTGAGCTATTCCAGAAGTAGTGAGGAGGCTTTTTTGGAGGCCTAGGCTTTTGCAAAAAGCTTGGCATTCCGGTACTGTTGGTAAAGCCACCC | 3.6 | –
PB1-3-CMV: promoter: 4 mouse PBREM elements with CMV minimal promoter, SEQ ID NO: 18 (nucleic acid, PB1-3-CMV) DNA: TCTGTACTTTCCTGACCTTGGCACAGTGCCACCATCAACTTGCCTGACACCCATTACTCGCATCCATTCTCTCTGTACTTTCCTGACCTTGGCACAGTGCCACCATCAACTTGCCTGACACCGCACTGAAGGTCCTCAATCGTCTGTACTTTCCTGACCTTGGCACAGTGCCACCATCAACTTGCCTGACACCCTGACCTCCTGCCAGCAATATCTGTACTTTCCTGACCTTGGCACAGTGCCACCATCAACTTGCCTGACACCGCTGGGAGTTCGTAGACGGAGCGATTAATCCATATGCAGGTCTATATAAGCAGAGCTCGTTTAGTGAACCGTCAGATCGCCTAGATACGCCATCCACGCTGTTTTGACCTCCATAGAAGATCGCCACCC | 2.67 | –
PB1-2-CMV: promoter: 3 mouse PBREM elements with CMV minimal promoter, SEQ ID NO: 17 (nucleic acid, PB1-2-CMV) DNA: TCTGTACTTTCCTGACCTTGGCACAGTGCCACCATCAACTTGCCTGACACCCATTACTCGCATCCATTCTCTCTGTACTTTCCTGACCTTGGCACAGTGCCACCATCAACTTGCCTGACACCGCACTGAAGGTCCTCAATCGTCTGTACTTTCCTGACCTTGGCACAGTGCCACCATCAACTTGCCTGACACCGCTGGGAGTTCGTAGACGGAGCGATTAATCCATATGCAGGTCTATATAAGCAGAGCTCGTTTAGTGAACCGTCAGATCGCCTAGATACGCCATCCACGCTGTTTTGACCTCCATAGAAGATCGCCACCC | 2.67 | –
